Experimental data as given in PMC5087089, “Reconstituted B cell receptor signaling reveals carbohydrate-dependent mode of activation” (Scientific Reports, 2016).

Target: T1, wildtype (WT) HA trimer from A/New Caledonia/20/1999 (H1 1999 NC), soluble trimeric format (influenza A virus A/New …, UniProt Q6WG00)
T1 construct: also called wildtype HA
Assay: ELISA
Details: both partners purified

B1: CH65, HA receptor binding site specific monoclonal antibody (antibody, V domains shown)
VH: EVQLVQSGAEVKKPGASVKVSCKASGYTFTDYHINWVRQAPGQGLEWMGWIHPNSGDTNYAQKFQGWVTMTRDTAISTAYMEVNGLKSDDTAVYYCARGGLEPRSVDYYYYGMDVWGQGTTVTVSS
VL: SVLTQPPSVSVAPGQTARITCGGNDIGRKSVHWNQQKPGQAPVLVVCYDSDRPSGIPERFSGSNSGNTATLTISRVEAGDEADYYCQVWDSSSDHVIFGGGTKLTVL
  binding result: binds
